System: Escherichia coli TOP10
Test: shrunken log2 fold change of peptide-encoding DNA abundance (4.5 h post-induction vs induction); higher = less antimicrobial activity (less host growth inhibition)
Details: time post-induction: 4.5 h; library: site-saturation at positions 5, 18, 19, 20
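Note: peptides expressed intracellularly from a pBAD plasmid library in pooled LB shake-flask culture, induced with 0.3% L-arabinose, DNA abundance read by NGS, three biological replicates, DESeq2 with apeglm shrinkage.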

| Sequence | shrunken log2 fold change |
| --- | --- |
| RRIRHRPPRLPRPRPRPTHTPRP | -0.00887 |
| RRIRDRPPRLPRPRPRPGTTPRP | 0.427 |
| RRIRDRPPRLPRPRPRPTYTPRP | 0.319 |
| RRIRKRPPRLPRPRPRPVRQPRP | -0.0361 |
| RRIRDRPPRLPRPRPRPWWRPRP | 0.116 |
| RRIRKRPPRLPRPRPRPWLGPRP | 1.57 |
| RRIRMRPPRLPRPRPRPWNFPRP | -0.0756 |
| RRIRARPPRLPRPRPRPACDPRP | 0.851 |
| RRIRPRPPRLPRPRPRPGEIPRP | 0.21 |
| RRIRARPPRLPRPRPRPWAMPRP | 0.0453 |
| RRIRARPPRLPRPRPRPQYPPRP | -0.414 |
| RRIRPRPPRLPRPRPRPARMPRP | 0.487 |
| RRIRRRPPRLPRPRPRPFHPPRP | 0.111 |
| RRIRIRPPRLPRPRPRPVQMPRP | -0.675 |
| RRIRERPPRLPRPRPRPFSKPRP | -0.0819 |
| RRIRNRPPRLPRPRPRPRCPPRP | -0.0521 |
| RRIRYRPPRLPRPRPRPIMAPRP | -0.708 |
| RRIRYRPPRLPRPRPRPARKPRP | -0.486 |
| RRIRNRPPRLPRPRPRPMECPRP | -0.0276 |
| RRIRKRPPRLPRPRPRPIDYPRP | -0.0337 |
| RRIRYRPPRLPRPRPRPIDMPRP | -0.315 |
| RRIRYRPPRLPRPRPRPNYMPRP | -0.357 |
| RRIRPRPPRLPRPRPRPSNMPRP | -0.884 |
| RRIRCRPPRLPRPRPRPVIAPRP | -0.2 |
| RRIRLRPPRLPRPRPRPGINPRP | -0.354 |

| Sequence | shrunken log2 fold change |
| --- | --- |
| RRIRGRPPRLPRPRPRPTNWPRP | 0.485 |
| RRIRRRPPRLPRPRPRPVERPRP | -0.049 |
| RRIRRRPPRLPRPRPRPMVSPRP | 0.0678 |
| RRIRMRPPRLPRPRPRPVSIPRP | 0.0541 |
| RRIRARPPRLPRPRPRPKAVPRP | 0.706 |
| RRIRQRPPRLPRPRPRPGRLPRP | 0.0206 |
| RRIRHRPPRLPRPRPRPAFEPRP | -0.0402 |
| RRIRSRPPRLPRPRPRPQPLPRP | 0.256 |
| RRIRYRPPRLPRPRPRPACEPRP | -0.0778 |
| RRIRERPPRLPRPRPRPQYCPRP | -0.0302 |
| RRIRDRPPRLPRPRPRPSIGPRP | 0.154 |
| RRIRLRPPRLPRPRPRPNCWPRP | 0.388 |
| RRIRTRPPRLPRPRPRPMQIPRP | 0.08 |
| RRIRWRPPRLPRPRPRPATFPRP | 0.311 |
| RRIRWRPPRLPRPRPRPLVKPRP | 0.147 |
| RRIRCRPPRLPRPRPRPQQQPRP | 0.339 |
| RRIRHRPPRLPRPRPRPQRPPRP | 0.183 |
| RRIRDRPPRLPRPRPRPCKVPRP | -0.202 |
| RRIRARPPRLPRPRPRPPPGPRP | 1.16 |
| RRIRIRPPRLPRPRPRPNNTPRP | -1.09 |
| RRIRPRPPRLPRPRPRPESSPRP | 1.89 |
| RRIRPRPPRLPRPRPRPPDNPRP | 0.246 |
| RRIRIRPPRLPRPRPRPKAEPRP | 0.124 |
| RRIRPRPPRLPRPRPRPYAAPRP | 0.0621 |
| RRIRFRPPRLPRPRPRPITRPRP | 0.114 |

| Sequence | shrunken log2 fold change |
| --- | --- |
| RRIRGRPPRLPRPRPRPDEPPRP | 1.37 |
| RRIRVRPPRLPRPRPRPPEIPRP | -0.0437 |
| RRIRVRPPRLPRPRPRPGIKPRP | 0.174 |
| RRIRPRPPRLPRPRPRPIQNPRP | -0.11 |
| RRIRMRPPRLPRPRPRPEVRPRP | 0.438 |
| RRIRNRPPRLPRPRPRPYLHPRP | -0.429 |
| RRIRCRPPRLPRPRPRPICHPRP | 1.48 |
| RRIRFRPPRLPRPRPRPNAHPRP | 0.0459 |
| RRIRVRPPRLPRPRPRPQFVPRP | -0.122 |
| RRIRIRPPRLPRPRPRPMKQPRP | -0.0367 |
| RRIRERPPRLPRPRPRPMAHPRP | -0.0343 |
| RRIRYRPPRLPRPRPRPRIDPRP | -0.174 |
| RRIRHRPPRLPRPRPRPERAPRP | 0.305 |
| RRIRGRPPRLPRPRPRPQSVPRP | -0.199 |
| RRIRRRPPRLPRPRPRPMAQPRP | 0.318 |
| RRIRMRPPRLPRPRPRPWCKPRP | 0.0317 |
| RRIRHRPPRLPRPRPRPRTQPRP | 0.0696 |
| RRIRVRPPRLPRPRPRPVPVPRP | 0.0573 |
| RRIRCRPPRLPRPRPRPHMYPRP | -0.715 |
| RRIRNRPPRLPRPRPRPHPWPRP | 0.0589 |
| RRIRDRPPRLPRPRPRPTIFPRP | 0.0643 |
| RRIRPRPPRLPRPRPRPVIDPRP | -0.0426 |
| RRIRSRPPRLPRPRPRPKMDPRP | 0.232 |
| RRIRERPPRLPRPRPRPATEPRP | -0.155 |
| RRIRNRPPRLPRPRPRPAVLPRP | 0.00424 |

| Sequence | shrunken log2 fold change |
| --- | --- |
| RRIRQRPPRLPRPRPRPQQCPRP | -0.132 |
| RRIRFRPPRLPRPRPRPCEEPRP | 0.178 |
| RRIRNRPPRLPRPRPRPFAQPRP | -0.321 |
| RRIRPRPPRLPRPRPRPAHNPRP | -0.114 |
| RRIRKRPPRLPRPRPRPAHTPRP | 0.471 |
| RRIRVRPPRLPRPRPRPVEGPRP | 0.112 |
| RRIRNRPPRLPRPRPRPNIEPRP | -0.027 |
| RRIRVRPPRLPRPRPRPWYIPRP | -0.0193 |
| RRIRCRPPRLPRPRPRPEDKPRP | -0.114 |
| RRIRLRPPRLPRPRPRPWKGPRP | 0.0434 |
| RRIRDRPPRLPRPRPRPIPKPRP | -0.0116 |
| RRIRARPPRLPRPRPRPHTEPRP | -0.0331 |
| RRIRVRPPRLPRPRPRPFPLPRP | -0.566 |
| RRIRLRPPRLPRPRPRPKTCPRP | 0.118 |
| RRIRCRPPRLPRPRPRPYTKPRP | -0.321 |
| RRIRRRPPRLPRPRPRPSYMPRP | -0.257 |
| RRIRIRPPRLPRPRPRPQELPRP | -0.169 |
| RRIRKRPPRLPRPRPRPYRAPRP | -0.117 |
| RRIRYRPPRLPRPRPRPNRRPRP | -0.023 |
| RRIRIRPPRLPRPRPRPSMAPRP | -0.531 |
| RRIRWRPPRLPRPRPRPGAIPRP | -0.096 |
| RRIRTRPPRLPRPRPRPPTMPRP | -0.0279 |
| RRIRMRPPRLPRPRPRPQPIPRP | -0.0134 |
| RRIRSRPPRLPRPRPRPWRPPRP | 0.0563 |
| RRIRVRPPRLPRPRPRPMWSPRP | -0.0513 |

| Sequence | shrunken log2 fold change |
| --- | --- |
| RRIRGRPPRLPRPRPRPCTTPRP | 0.141 |
| RRIRSRPPRLPRPRPRPPVCPRP | 0.311 |
| RRIRHRPPRLPRPRPRPVIYPRP | -0.678 |
| RRIRVRPPRLPRPRPRPFVAPRP | -0.118 |
| RRIRRRPPRLPRPRPRPLYQPRP | -0.315 |
| RRIRQRPPRLPRPRPRPGGCPRP | 0.546 |
| RRIRMRPPRLPRPRPRPRQKPRP | 0.183 |
| RRIRFRPPRLPRPRPRPYCQPRP | -0.131 |
| RRIRWRPPRLPRPRPRPYIWPRP | -0.477 |
| RRIRYRPPRLPRPRPRPARCPRP | 0.0957 |
| RRIRDRPPRLPRPRPRPMLPPRP | 0.16 |
| RRIRFRPPRLPRPRPRPQAFPRP | -0.175 |
| RRIRLRPPRLPRPRPRPSWRPRP | 0.276 |
| RRIRSRPPRLPRPRPRPCFVPRP | -0.378 |
| RRIRWRPPRLPRPRPRPPEWPRP | 0.36 |
| RRIRQRPPRLPRPRPRPRMGPRP | -0.0719 |
| RRIRSRPPRLPRPRPRPLLMPRP | 0.128 |
| RRIRKRPPRLPRPRPRPRSQPRP | 0.051 |
| RRIRTRPPRLPRPRPRPPFHPRP | 0.535 |
| RRIRWRPPRLPRPRPRPELQPRP | 0.326 |
| RRIRVRPPRLPRPRPRPGSGPRP | 0.0303 |
| RRIRERPPRLPRPRPRPLVNPRP | -0.456 |
| RRIRLRPPRLPRPRPRPHYVPRP | -0.169 |
| RRIRPRPPRLPRPRPRPEMDPRP | 0.116 |
| RRIRRRPPRLPRPRPRPMIHPRP | -0.0319 |

From the supplement of paper PMC9112550, “Optimization of the antimicrobial peptide Bac7 by deep mutational scanning” (BMC Biology, 2022)
